Two substances from PMC9875831 can be followed below.

Common to all, as to test: FRET or BRET
(In general: Bioluminescence resonance energy transfer reports proximity on the nanometre scale.)

The target of test [1] is A2AR-D2R heteromer (A2AR-Rluc with D2R-GFP2) (human) (UniProt P29274).
Test [2] deals with D2R-Rluc (dopamine D2 receptor, long isoform, fused to Renilla luciferase) (human) (UniProt P14416).
For test [3], the target named is A2AR-Rluc (adenosine A2A receptor fused to Renilla luciferase) (human) (UniProt P29274).
In test [4] the target is A2AR-D2R heteromer (A2AR-Rluc with D2R-GFP2) (human) (UniProt P29274). The source holds these as a separate data set.

Where two headings read alike, the source gives them in different places.

UniProt P14416, sequence (P14416 whole entry, the tested form may be a part, canonical isoform): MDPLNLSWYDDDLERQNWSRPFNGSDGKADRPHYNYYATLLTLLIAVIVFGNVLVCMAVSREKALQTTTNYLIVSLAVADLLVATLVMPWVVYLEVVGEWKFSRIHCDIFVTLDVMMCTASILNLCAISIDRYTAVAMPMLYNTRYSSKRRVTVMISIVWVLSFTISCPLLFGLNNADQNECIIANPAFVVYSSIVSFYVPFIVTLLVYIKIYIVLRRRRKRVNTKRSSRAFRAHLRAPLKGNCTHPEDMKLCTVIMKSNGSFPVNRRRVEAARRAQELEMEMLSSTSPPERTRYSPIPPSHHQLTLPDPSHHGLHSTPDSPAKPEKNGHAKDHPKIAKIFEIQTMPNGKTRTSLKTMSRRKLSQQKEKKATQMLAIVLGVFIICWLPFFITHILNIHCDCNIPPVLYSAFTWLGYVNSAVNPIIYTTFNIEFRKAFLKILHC

Consider “NCS-1-YFP (neuronal calcium sensor 1 fused to yellow fluorescent protein) (from UniProt P62166 1-190) (natural protein)”, for which the SRET50 was 8.9 in test [1] and 24.1 in test [4]. For the same substance, the figures for the BRET50 in test [2] and in test [3] were 23.4 and 42.4, respectively.

Turning to “calneuron-1-YFP (from UniProt Q9BXU9 1-261) (natural protein)”, the SRET50 in test [1] worked out at 25.1; in test [4], 38.5. Besides, the BRET50 worked out at 25.7 in test [2] and 40.5 in test [3].
